Source: patent US20220000983A1 (UNITED STATES GOVERNMENT AS REPRESENTED BY THE DEPARTMENT …, published 2022)
Starred links: 1 amine or outer side, 2 acyl side, 3 side chain; linkers in the order of their positions; H or OH if unused. Non-standard residues stand in square brackets, D forms with d. No end group written: not given here. *: point of attachment. Tyr(Me) = O-methyltyrosine, COc1ccc(C[C@H](N[*:1])C(=O)[*:2])cc1; Phenylacetyl(2,3,4,5,6-F5) = O=C(Cc1c(F)c(F)c(F)c(F)c1F)*; Phe(F5) = N[C@@H](Cc1c(F)c(F)c(F)c(F)c1F)C(=O)O; Phe(4-Cl) = N[C@@H](Cc1ccc(Cl)cc1)C(=O)O; hArg = N=C(N)NCCCC[C@H](N)C(=O)O; Nle = CCCC[C@H](N)C(=O)O; Orn = NCCC[C@H](N)C(=O)O; Abu = CC[C@H](N)C(=O)O; Ada = not defined here; Amp = not defined here; Cpa = not defined here; PhAc = O=C(Cc1ccccc1)*; Aoc = NCCCCCCCC(=O)O

T1: GHRH receptor on rat pituitary cells (rat, UniProt Q02644 23-464)
T1 sequence (looked up): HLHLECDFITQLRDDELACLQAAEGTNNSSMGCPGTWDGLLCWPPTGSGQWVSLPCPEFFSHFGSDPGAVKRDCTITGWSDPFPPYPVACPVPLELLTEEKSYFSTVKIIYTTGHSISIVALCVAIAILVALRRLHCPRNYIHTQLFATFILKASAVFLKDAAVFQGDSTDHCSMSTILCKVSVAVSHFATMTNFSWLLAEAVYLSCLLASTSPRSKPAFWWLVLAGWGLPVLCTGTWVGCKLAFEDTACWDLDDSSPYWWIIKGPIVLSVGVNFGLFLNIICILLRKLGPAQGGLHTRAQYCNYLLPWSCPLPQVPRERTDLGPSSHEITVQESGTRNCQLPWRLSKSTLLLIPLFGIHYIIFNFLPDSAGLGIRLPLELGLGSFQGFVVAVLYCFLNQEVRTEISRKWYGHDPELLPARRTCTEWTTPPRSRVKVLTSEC

T2: GHRH receptor (membrane GHRH-receptors on human anterior pituitary cells) (human, UniProt Q02643 23-423)
T2 construct: whole, on cells; Native receptor in membrane fractions prepared from bought human pituitary (National Hormone and Peptide Program), not a recombinant construct; also called pituitary type GHRH-receptor; pGHRH-R
T2 sequence (looked up): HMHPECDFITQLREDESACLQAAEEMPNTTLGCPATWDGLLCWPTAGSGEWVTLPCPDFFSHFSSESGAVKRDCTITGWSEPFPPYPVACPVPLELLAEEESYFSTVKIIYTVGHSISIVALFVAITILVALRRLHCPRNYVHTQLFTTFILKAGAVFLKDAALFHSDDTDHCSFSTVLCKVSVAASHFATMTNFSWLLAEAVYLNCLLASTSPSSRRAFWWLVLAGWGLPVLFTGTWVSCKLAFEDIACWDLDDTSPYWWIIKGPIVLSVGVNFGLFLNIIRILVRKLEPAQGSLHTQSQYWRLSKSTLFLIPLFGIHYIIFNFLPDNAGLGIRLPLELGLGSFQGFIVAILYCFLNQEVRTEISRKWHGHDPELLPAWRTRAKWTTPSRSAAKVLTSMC

B1: AVR-235 (peptide)
peptide: {Phenylacetyl(2,3,4,5,6-F5)-Ada}-Y[dR]DAI[Phe(F5)]TA[hArg][Tyr(Me)]RKVL[Abu]QLSARKLLQDI[Nle][dR]-NHMe
modifications: reading uncertain
B2: AVR-333 (peptide)
peptide: {Phenylacetyl(2,3,4,5,6-F5)-Ada}-Y[dR]DAI[Phe(4-Cl)]TN[hArg][Tyr(Me)]RKVL[Abu]QLSARKLLQDI[Nle][dR][hArg]-{Ada-NH2}
modifications: reading uncertain
notes: Synthetic GHRH antagonist
B3: AVR-321 (peptide)
peptide: {PhAc-Ada}-Y[dR]DAI[Phe(4-Cl)]TN[hArg][Tyr(Me)]RKVL[Abu]QLSARKLLQDI[Nle][dR][hArg]-{Aoc-NHMe}
modifications: reading uncertain
notes: Synthetic GHRH antagonist
B4: AVR-107 (peptide)
peptide: {PhAc-Ada}-Y[dR]DAI[Cpa]TARYRKVL[Abu]QLSARKLLQDI[Nle][dR][hArg]-NH2
modifications: reading uncertain
notes: Synthetic GHRH antagonist
B5: AVR-352 (peptide)
peptide: {Phenylacetyl(2,3,4,5,6-F5)-Ada}-Y[dR]DAI[Phe(F5)]TA[hArg][Tyr(Me)]RKVL[Abu]QLSARKLLQDI[Nle][dR][hArg]-{Ada-NH2}
modifications: not fully specified; reading uncertain
B6: AVR-353 (peptide)
peptide: {Phenylacetyl(2,3,4,5,6-F5)-Ada}-Y[dR]DAI[Phe(4-Cl)]TA[hArg][Phe(F5)]RKVL[Abu]QLSARKLLQDI[Nle][dR][hArg]-{Ada-NH2}
modifications: reading uncertain
notes: Synthetic GHRH antagonist
B7: AVR-354 (peptide)
peptide: {Phenylacetyl(2,3,4,5,6-F5)-Ada}-Y[dR]DAI[Phe(4-Cl)]TA[hArg][Phe(F5)]RKVL[Abu]QLSARKLLQDI[Nle][dR][hArg]
modifications: not fully specified (C-terminus); reading uncertain
B8: AVR-543 (peptide)
peptide: {Phenylacetyl(2,3,4,5,6-F5)-Ada}-Y[dR]DAI[Cpa]TA[hArg][Phe(F5)]H[Orn]VL[Abu]QLSAH[Orn]LLQDI[Nle][dR][hArg]-{Ada-NHMe}
modifications: reading uncertain
notes: Synthetic GHRH antagonist
B9: AVR-553 (peptide)
peptide: {Phenylacetyl(2,3,4,5,6-F5)-Ada}-Y[dR]DAI[Phe(F5)]TA[hArg][Tyr(Me)]H[Orn]VL[Abu]QLSAH[Orn]LLQDI[Nle][dR][hArg]-{Ada-NH2}
modifications: reading uncertain
notes: Synthetic GHRH antagonist
B10: AVR-322 (peptide)
peptide: {Phenylacetyl(2,3,4,5,6-F5)-Ada}-Y[dR]DAI[Phe(4-Cl)]TN[hArg][Tyr(Me)]RKVL[Abu]QLSARKLLQDI[Nle][dR][hArg]-{Aoc-NHMe}
modifications: reading uncertain
notes: Synthetic GHRH antagonist
B11: AVR-542 (peptide)
peptide: {Phenylacetyl(2,3,4,5,6-F5)-Ada}-Y[dR]DAI[Cpa]TA[hArg][Phe(F5)]H[Orn]VL[Abu]QLSAH[Orn]LLQDI[Nle][dR][hArg]-NHMe
modifications: reading uncertain
B12: MIA-690 (peptide)
chain: {PhAc-Ada}-Y[dR]DAI[Cpa]TA[hArg][Phe(F5)]H[Orn]VL[Abu]QLSAH[Orn]LLQDI[Nle][dR][hArg]-NH2
modifications: reading uncertain
B13: AVR-552 (peptide)
peptide: {Phenylacetyl(2,3,4,5,6-F5)-Ada}-Y[dR]DAI[Cpa]TA[hArg][Phe(F5)]H[Orn]VL[Abu]QLSAH[Orn]LLQDI[Nle][dR][hArg]-{Ada-NH2}
modifications: reading uncertain
notes: Synthetic GHRH antagonist
B14: AVR-120 (peptide)
peptide: {dF-Ada}-Y[dR]DAI[Phe(4-Cl)]TAR[Tyr(Me)]RKVL[Abu]QLSAH[Orn]LLQDI[Nle][dR][hArg]-NH2
modifications: reading uncertain
notes: Synthetic GHRH antagonist
B15: AVR-620 (peptide)
peptide: {Phenylacetyl(2,3,4,5,6-F5)-Ada}-Y[dR]DAI[Cpa]TNR[Tyr(Me)]RKVL[Abu]QLSAH[Orn]LLQDI[Nle][dR][hArg]-{Ada-NH2}
modifications: reading uncertain
notes: Synthetic GHRH antagonist
B16: AVR-104 (peptide)
peptide: {PhAc-Ada}-Y[dR]DAI[Phe(4-Cl)]TAR[Tyr(Me)]RKVL[Abu]QLSAH[Orn]LLQDI[Nle][dR][hArg]-NH2
modifications: reading uncertain
notes: Synthetic GHRH antagonist
B17: AVR-116 (peptide)
peptide: {PhAc-Ada}-Y[dR]DAI[Phe(4-Cl)]TAR[Phe(F5)]RKVL[Abu]QLSAH[Orn]LLQDI[Nle][dR][hArg]-NH2
modifications: reading uncertain
notes: Synthetic GHRH antagonist
B18: AVR-201 (peptide)
peptide: {PhAc-Ada}-Y[dR]DAI[Cpa]TAR[Amp]RKVL[Abu]QLSAH[Orn]LLQDI[Nle][dR][hArg]-NHMe
modifications: reading uncertain
notes: Synthetic GHRH antagonist
B19: AVR-234 (peptide)
peptide: {PhAc-Ada}-Y[dR]DAI[Phe(4-Cl)]TNR[Tyr(Me)]RKVL[Abu]QLSARKLLQDI[Nle][dR][hArg]-NHMe
modifications: reading uncertain
notes: Synthetic GHRH antagonist

Key:
[1] = molecular target: T1, GHRH receptor on rat pituitary cells; experiment: cell-based or functional assay
[2] = molecular target: GHRH receptor (membrane GHRH-receptors on human anterior pituitary cells) (human) (UniProt Q02643); experiment: competitive radioligand binding; displacement of 125I-[His1,Nle27]-hGH-RH(1-32)NH2 (0.2 nM) from human pituitary membrane fractions
[3] = molecular target: T2, GHRH receptor (membrane GHRH-receptors …); experiment: as above
Protocol: Receptor binding affinities in vitro. Preparation of human pituitary membrane fractions and receptor binding of analogs of GH-RH were performed (Halmos G, Rekasi Z, Szoke B, Schally A V. (1993) Receptor 3:87-97). Human pituitary was purchased from the National Hormone and Peptide Program. […] The values were calculated from technical duplicate tubes.
Nineteen new AVR analogs of GHRH were tested in the receptor binding assay. Table 6 presents the IC₅₀ values of GHRH antagonists to membrane GHRH-receptors binding on human anterior pituitary cells.

Molecule	Relative GH release [1]	IC50 [3] [nM]	also measured
MIA-602 (peptide)			Relative GH release (relative to control (1.00)) [1]: 0.78; IC50 [2]: 0.27 nM
AVR-540 (peptide)			Relative GH release (relative to control (1.00)) [1]: 0.88
AVR-332 (peptide)			IC50 [2]: 0.34 nM
B1	0.6 relative to control (1.00)	0.49	
B2	0.88 relative to control (1.00)	0.3	
B3		0.23	
B4		0.61	
B5	0.72 relative to control (1.00)	0.09	
B6	0.65 relative to control (1.00)	0.11	
B7	0.9 relative to control (1.00)	0.14	
B8	1.1 relative to control (1.00)	0.25	
B9	0.82 relative to control (1.00)	0.15	
B10		0.25	
B11		0.21	
B12		0.53	
B13		0.17	
B14		0.48	
B15		0.31	
B16		0.59	
B17		0.5	
B18		0.61	
B19		0.45	
